The values below come from doi:10.1101/266833 (bioRxiv, 2018).

For the test, the target named is T1, yUpf1-HD (220-851) (S. cerevisiae, UniProt P30771 220-851).
T1 sequence (looked up): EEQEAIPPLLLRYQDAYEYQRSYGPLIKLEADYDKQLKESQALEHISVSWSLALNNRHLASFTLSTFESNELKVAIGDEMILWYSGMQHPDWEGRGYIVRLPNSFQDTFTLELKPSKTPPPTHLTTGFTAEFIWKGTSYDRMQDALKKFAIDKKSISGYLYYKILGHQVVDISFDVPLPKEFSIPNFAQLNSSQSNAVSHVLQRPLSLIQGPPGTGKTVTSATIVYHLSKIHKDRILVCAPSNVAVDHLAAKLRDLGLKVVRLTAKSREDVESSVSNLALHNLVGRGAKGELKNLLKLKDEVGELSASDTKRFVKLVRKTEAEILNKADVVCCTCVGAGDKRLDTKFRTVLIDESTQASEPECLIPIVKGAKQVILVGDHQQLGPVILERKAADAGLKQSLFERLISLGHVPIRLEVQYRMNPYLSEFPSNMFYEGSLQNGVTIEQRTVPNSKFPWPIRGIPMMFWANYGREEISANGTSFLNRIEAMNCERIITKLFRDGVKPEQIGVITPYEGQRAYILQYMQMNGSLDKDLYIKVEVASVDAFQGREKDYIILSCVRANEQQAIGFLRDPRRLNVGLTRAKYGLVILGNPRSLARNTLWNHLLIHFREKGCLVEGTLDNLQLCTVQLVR
Nature of the test: pull-down.

B1: CBP-Nmd4 (natural protein, S. cerevisiae, UniProt Q12129 1-218, looked up)
chain: MTQYNFIIDASAFEKGLGNIKRWCSDCTEAVTLNFYIPTFTLNELDFLQQRRKSFAARESLKFIDRLDDSKFANLKVFIEFPEVLDIILWSDVMEHNDSSGKINIAKLPKRLKNLLKSCIYKCYLEGNEGLHWFLISEDPQIREMAMQCNIPSCSIVDVDSILSKDMNDKSFRESEKFNNMMLKNGTKEESENGREIIRTNFNKTVYASRGTGELWSP
Regarding B1, the binding result is “binds”.
